{"source": "paper PMC5148173", "key": {"[1]": {"target": "N-terminally hexahistidine tagged wt N_TAIL (C-terminal domain of the MeV nucleoprotein N, aa 401-525) (measles virus (Edmonston B)) (UniProt P04851)", "test": "ITC", "settings": "domain or fragment"}, "[2]": {"target": "N_TAIL S491L fused to a Gaussia luciferase fragment (glu-PCA) (measles virus) (UniProt P04851)", "test": "split reporter (BiFC, NanoBiT); KD estimated from the glu-PCA luminescence with the empirically determined equation relating luminescence and the ITC KD values (Fig 4)"}, "[3]": {"target": "N-terminally hexahistidine tagged N_TAIL R497G (measles virus (Edmonston B)) (UniProt P04851)", "test": "ITC; N_TAIL (25-180 uM) in the cell, XD (300-960 uM) in the microsyringe, 19 injections of 2 uL; 20 C; 10 mM Tris/HCl pH 8, 150 mM NaCl; single set of sites model"}, "[4]": {"target": "N-terminally hexahistidine tagged N_TAIL R490S (measles virus (Edmonston B)) (UniProt P04851)", "test": "ITC; N_TAIL (25-180 uM) in the cell, XD (300-960 uM) in the microsyringe, 19 injections of 2 uL; 20 C; 10 mM Tris/HCl pH 8, 150 mM NaCl; single set of sites model"}}, "note": "pKd: −log10 of the molar value."}
{"substance": "C-terminally hexahistidine tagged MeV XD (X domain of the phosphoprotein P, aa 459-507) (from UniProt P03422 459-507)", "values": [{"measurement": "pKd", "setting": "[1]", "result": 5.52}]}
{"substance": "XD of the monomeric split-luciferase reassembly assay (glu-PCA) (from UniProt P03422 376-507) (domain or fragment)", "values": [{"measurement": "pKd", "setting": "[2]", "result": 4.07}]}
{"substance": "C-terminally hexahistidine tagged MeV XD (X domain of the phosphoprotein P, aa 459-507) (from UniProt P03422 459-507) (domain or fragment)", "values": [{"measurement": "pKd", "setting": "[3]", "result": 4.36}, {"measurement": "pKd", "setting": "[4]", "result": 4.70}, {"measurement": "fold decrease in the binding affinity against wt N TAIL", "setting": "[4]", "result": 7, "unit": "fold"}]}
